Here are results for two substances from article PMC8217502.

In experiment [1] the target is cytochrome bc1 complex (CIII) (P. falciparum) (UniProt Q7HP03). In words: native gel or EMSA; complexome profiling: mitochondria-enriched fractions of mixed ABS parasites or stage V gametocytes (enrichment methods 1-3), solubilised with digitonin or DDM, BN-PAGE on 4-16% gradient gels, gel slices analysed by LC-MS/MS; comigration of iBAQ migration profiles. (Mobility shift assays separate free from complexed probe on a gel.)

The target in experiment [2] is F1FO-ATP synthase (complex V) (P. falciparum). In words: native gel or EMSA; high molecular mass (HMM) complexome profiles: GCT3D experiment repeated on a 3-16% BN gel, only the top part of the gel (Mr app. >1000 kDa) analysed; gametocytes, digitonin.
For experiment [3] the target is unchanged. Nature of the experiment: native gel or EMSA; complexome profiling after method 3 only (nitrogen cavitation without saponin, larger amounts of parasites; samples ABS3D and GCT3D), digitonin, BN-PAGE 4-16%, stacking gel also analysed.

One may read the stoichiometry N as a count of units in the complex or per binding partner. In experiment [1], “cytochrome bc1 complex (CIII), Q7HP03 1-376; Q8I6U9 1-394; Q8IL75 1-355; Q8ILJ5 1-88; Q8IJS2 1-192; Q9NLB3 1-137; C0H4H6 1-96; Q8I2I2 1-484; Q8I3N3 1-534; Q8IBM6 1-79; A0A5K1K9E9 1-163; Q8IB13 1-54” had a stoichiometry N of 2. Take F1FO-ATP synthase (complex V): the stoichiometry N in experiment [2] and in experiment [3] was 2 in each case.
